We go through two molecules from CN116262787A (BOAOXIN BIOTECHNOLOGY NANJING CO LTD, dated 2023).

Assay [1] concerns the target T1, 人LAG-3 on the surface of a stable 293T cell line overexpressing it (human, UniProt P18627 23-525).
T1 construct: whole, on cells; also called 表面过表达人LAG-3的293T细胞
T1 sequence (looked up): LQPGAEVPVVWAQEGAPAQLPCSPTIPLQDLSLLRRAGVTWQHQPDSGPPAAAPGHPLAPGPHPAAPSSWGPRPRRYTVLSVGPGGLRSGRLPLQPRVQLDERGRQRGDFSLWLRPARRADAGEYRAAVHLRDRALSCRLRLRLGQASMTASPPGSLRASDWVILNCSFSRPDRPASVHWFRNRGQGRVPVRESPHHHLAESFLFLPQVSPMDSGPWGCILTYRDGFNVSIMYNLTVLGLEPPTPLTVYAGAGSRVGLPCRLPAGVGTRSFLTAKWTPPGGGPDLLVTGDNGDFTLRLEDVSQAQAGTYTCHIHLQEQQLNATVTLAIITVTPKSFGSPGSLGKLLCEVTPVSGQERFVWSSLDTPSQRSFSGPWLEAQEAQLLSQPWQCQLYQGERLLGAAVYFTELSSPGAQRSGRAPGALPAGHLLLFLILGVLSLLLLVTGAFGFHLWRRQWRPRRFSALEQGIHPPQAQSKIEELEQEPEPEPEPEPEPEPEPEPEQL
As to the kind of experiment: flow cytometry on 293T cells overexpressing human LAG-3. For orientation: Flow cytometry measures light scatter and fluorescence of single cells or particles in a stream.

Assay [2] addresses T2, 生物素标记的人LAG-3蛋白 (LAG-3-Fc-bio, cat#LA3-H82Fb, Acro) (human, UniProt P18627 23-450, biotin label (site not stated)).
T2 construct: Bought protein (Acro LA3-H82Fb); also called 人LAG-3-Fc-bio; not shown: Fc part of the bought fusion
T2 sequence (looked up): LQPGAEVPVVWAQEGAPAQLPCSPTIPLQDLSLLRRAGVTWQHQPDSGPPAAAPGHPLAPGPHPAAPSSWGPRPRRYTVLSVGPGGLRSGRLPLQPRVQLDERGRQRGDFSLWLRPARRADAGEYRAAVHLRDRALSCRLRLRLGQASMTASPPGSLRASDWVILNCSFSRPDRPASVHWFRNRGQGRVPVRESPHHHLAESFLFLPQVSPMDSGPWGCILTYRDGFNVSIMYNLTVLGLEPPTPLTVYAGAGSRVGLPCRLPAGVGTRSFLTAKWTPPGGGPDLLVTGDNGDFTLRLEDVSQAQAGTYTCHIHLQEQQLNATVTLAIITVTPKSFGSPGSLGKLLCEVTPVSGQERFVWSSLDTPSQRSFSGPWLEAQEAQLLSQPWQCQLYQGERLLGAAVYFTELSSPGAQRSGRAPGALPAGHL
As to the kind of experiment: capture ELISA: antibody captured on GAM-Fab/GAH-Fab, LAG-3-Fc-bio in solution, SA-HRP.

The target of assay [3] is T3, 小鼠LAG-3-his (in-house, mouse LAG-3 Uniprot #Q61790, Gly24-Leu442) (mouse, UniProt Q61790 24-442).
T3 construct: range 24-442; also called 鼠LAG-3蛋白; not shown: his tag
T3 sequence (looked up): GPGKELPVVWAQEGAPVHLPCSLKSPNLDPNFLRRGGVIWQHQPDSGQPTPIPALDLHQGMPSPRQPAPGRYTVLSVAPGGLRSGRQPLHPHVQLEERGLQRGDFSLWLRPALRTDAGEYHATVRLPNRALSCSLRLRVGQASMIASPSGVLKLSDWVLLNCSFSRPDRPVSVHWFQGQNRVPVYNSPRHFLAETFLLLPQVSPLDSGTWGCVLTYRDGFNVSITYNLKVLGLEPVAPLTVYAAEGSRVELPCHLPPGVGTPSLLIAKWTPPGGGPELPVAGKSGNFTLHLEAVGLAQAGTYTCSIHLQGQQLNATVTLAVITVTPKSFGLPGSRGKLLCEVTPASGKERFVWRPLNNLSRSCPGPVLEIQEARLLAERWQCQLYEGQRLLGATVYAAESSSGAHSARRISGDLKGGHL
The assay can be described thus: indirect ELISA, coated mouse LAG-3-his.

B1: 抗人LAG-3抗体G1A7 (mouse anti-human LAG-3 monoclonal antibody G1A7) (antibody, V domains shown)
VH: EVQLQQSGPVLVKPGASVKMSCKASGYTFTHYYMNWVKQSHGKSLEWIGVINPYNGDTSYKQNFKGKATLTVDKTSSTAYMDLNSLTSEDSAVYYCARDDGYYQWYFDVWGTGTTVTVSS
VL: DIQLTQSPSSLSASLGERVSLTCRASQDIGSRLIWLQQGPDGTIKRLIFATSSLDSGVPKRFSGSRSGSDYSLTISSLESEDFVDYYCLQCASSPPTFGGGTKLEIK
notes: Tested as the mouse monoclonal antibody purified from hybridoma culture; also called 本发明的抗体G1A7
Turning to B1, the binding result in assay [1] was “binds”; in assay [2], “binds”; in assay [3], “no binding (tested: from 66.7nM, serial 5-fold dilution)”.

B2: Relatlimab (BRISTOL-MYERS SQUIBB COMPANY, BMS), reference antibody, prepared in-house (antibody, human IgG4 S228P, kappa, V domains shown)
VH: QVQLQQWGAGLLKPSETLSLTCAVYGGSFSDYYWNWIRQPPGKGLEWIGEINHRGSTNSNPSLKSRVTLSLDTSKNQFSLKLRSVTAADTAVYYCAFGYSDYEYNWFDPWGQGTLVTVSS
VL: EIVLTQSPATLSLSPGERATLSCRASQSISSYLAWYQQKPGQAPRLLIYDASNRATGIPARFSGSGSGTDFTLTISSLEPEDFAVYYCQQRSNWPLTFGQGTNLEIKR
notes: also called 参照抗体; 参照抗体Relatlimab
On to B2, for which the binding result in assay [3] is on record as “no binding (tested: from 66.7nM, serial 5-fold dilution)”.
